From WO2016170039A1 (dated 2016)

Biological target: T1, human angiopoietin 2 (human, UniProt O15123 19-496, limits assumed)
T1 construct: Bought (R&D Systems Cat.No. 623-AN) or produced in house; also called ANG-2; human ANG-2
T1 sequence: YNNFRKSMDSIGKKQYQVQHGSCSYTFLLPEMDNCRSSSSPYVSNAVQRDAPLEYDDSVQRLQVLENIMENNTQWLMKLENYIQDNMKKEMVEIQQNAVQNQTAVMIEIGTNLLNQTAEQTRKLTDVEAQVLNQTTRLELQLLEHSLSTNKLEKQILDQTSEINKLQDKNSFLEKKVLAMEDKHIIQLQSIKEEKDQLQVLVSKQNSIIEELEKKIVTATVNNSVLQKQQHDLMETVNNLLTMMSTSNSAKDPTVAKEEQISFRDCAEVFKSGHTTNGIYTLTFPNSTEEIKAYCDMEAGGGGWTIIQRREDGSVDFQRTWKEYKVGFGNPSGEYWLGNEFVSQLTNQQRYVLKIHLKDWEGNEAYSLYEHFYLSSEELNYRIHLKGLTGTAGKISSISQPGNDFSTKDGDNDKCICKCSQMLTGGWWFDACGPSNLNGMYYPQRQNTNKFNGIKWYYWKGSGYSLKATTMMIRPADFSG
Test: ANG-2/Tie2 receptor interaction ELISA; antibody pre-incubated with ANG-2; the IC50 (Table 2) is not given

B1: <ANG-2> LC06 (antibody, IgG1, V domains shown)
VH: not shown
VL: QPGLTQPPSVSVAPGQTARITCGGNNIGSKSVHWYQQKPGQAPVLVVYDDSDRPSGIPERFSGSNSGNTATLTISRVEAGDEADYYCQVWDSSSDHYVFGTGTKVTVLG
  binding result: binds
